{"source": "patent US9081020B2", "about": "“Mutant proteins and methods for selecting them” (Heptares Therapeutics Limited, priority 2008, dated 2015)", "key": {"M1 mAChR [1]": {"test_system": "M1 mAChR", "assay": "thermal stability (Tm) of partially purified [3H]NMS-labelled receptors in 0.1% dodecyl-β-maltoside", "format": "physicochemical, rat", "conditions": "0.1% DDM, incubation time 30 min; mean±range/SEM", "description": "For measurements of thermal melting temperature (Tm), [3H]NMS-labelled receptors were partially purified by immobilized metal ion affinity chromatography from cultures grown from single clones expressed in E. Coli BL21 cells, essentially as described in Hulme and Curtis, 1998 (21). Tm measurements were carried out after gel-filtration of partially purified receptors into 50 mM sodium phosphate, 5 mM β-mercaptoethanol and 0.1% dodecyl-β-maltoside (DDM), using an incubation time of 30 min. Values were tabulated as mean±range/SEM of 2 or more independent measurements (Table 3)."}, "M1 mAChR [2]": {"test_system": "M1 mAChR", "format": "physicochemical", "conditions": "3 h, 4° C.; for % 3H-NMS retained BOG: whole E. coli BL21 cells, single culture; for Stability (βOG in-situ) % L65A control: 0.82% β-octyl glucoside, % loss(control)/% loss(mutant), mean±SEM of 3", "description": "(§1) This concentration was determined by analysing wild-type M1 mAChRs expressed in the inner cell membranes of intact E. Coli strain BL21 cells. The cells were pre-labelled with the radiolabelled antagonist 3H—N-methyl scopolamine and resuspended to a pre-determined cell density (Absorbance at 600 nm=2.0) in a chosen buffer (in this case 50 mM sodium phosphate, 1 mM EDTA, pH 7.5). […] The wild-type M1 mAChRs were titrated by the addition of increasing concentrations of beta octyl glucoside dissolved in the same buffer for different times (e.g. 1 h, 2 h, 3 h, 5 h, 15 h) and at different temperatures (e.g. 4° C., 15° C.). The loss of specifically-bound radioligand was then measured after recovering the cells by centrifugation (15000×g, 15 min.). In the example, the centrifugation step was performed on duplicate 1 ml aliquots of the cells. The experiment was repeated 3 times. […] It will be appreciated that the cell density, detergent concentration and other parameters of the assay may be varied to adjust the loss of activity as appropriate.\n(§2) (a) A state of in-situ destabilisation of a particular membrane protein in a particular cell membrane as a result of the addition of a particular concentration of a particular detergent, can be defined by the loss of the characteristic specific ligand binding activity of the membrane protein for a particular ligand of interest in the presence of a defined concentration of a particular detergent molecule or other solubilising agent.\n(§3) A preferred version of the assay is destabilisation of a membrane protein-ligand complex in a detergent-enriched membrane. The membrane protein, either in a membrane preparation, or in intact cells in-vivo or ex-vivo, is pre-incubated with a labelled version of the ligand, the label, for instance, being a radioactive label, or a fluorescent label, and the binding step preferably being allowed to proceed to equilibrium, defined as the achievement of a time-invariant level of binding. To define membrane protein-independent, or non-specific, binding the binding step is performed with the addition of a second non-labelled ligand, called the competing ligand, having an appropriate membrane protein-specific pharmacology, at a concentration sufficient fully to occupy the binding sites of the membrane protein and thereby exclude the binding of the labelled ligand. The difference between the binding of the labelled ligand in the absence and presence of the competing ligand is defined as the specific binding of the labelled ligand. Measurement of binding requires a suitable method for separating and measuring bound ligand. Characteristically, this involves centrifugation of intact cells or membranes for a time and at a centrifugal force adequate to pellet them (for instance, 15000×g for 15 min in the case of E. coli cells, or 100,000×g for plasma membrane preparations), or filtration of a membrane suspension e.g. through a suitable filter paper such as glass fibre paper e.g. GF-B or GF-C followed by counting of radioactivity. Alternatively, it might involve the measurement of an optical signal such as enhancement of fluorescence emission in the case of fluorescent ligands.\n(§4) To perform the in-situ destabilisation assay, a pre-determined concentration of the detergent or other destabilising agent of choice is mixed with a membrane or cell suspension containing the pre-labelled membrane protein in an appropriate buffer composition at a particular temperature and for a particular time, determined as described below."}, "M1 mAChR [3]": {"molecular_target": "T1, M1 mAChR (Rattus norvegicus, UniProt P08482, DEL225-353/L65A)", "T1 construct": "(His)9QGG (C); expressed in transfected cells; host or cells: E. coli BL21 (whole cells)", "T1 sequence (P08482 with tags, fused parts or gaps L65A/DEL225-353)": "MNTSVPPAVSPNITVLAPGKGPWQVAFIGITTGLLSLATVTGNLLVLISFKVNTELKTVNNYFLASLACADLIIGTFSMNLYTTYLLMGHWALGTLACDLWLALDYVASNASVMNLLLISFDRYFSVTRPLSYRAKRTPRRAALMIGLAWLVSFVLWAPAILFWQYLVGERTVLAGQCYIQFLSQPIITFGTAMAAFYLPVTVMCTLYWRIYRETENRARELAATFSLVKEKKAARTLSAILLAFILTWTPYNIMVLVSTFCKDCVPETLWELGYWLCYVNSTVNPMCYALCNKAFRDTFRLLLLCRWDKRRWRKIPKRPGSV", "format": "physicochemical", "conditions": "after in-situ destabilisation in BOG or DDM", "description": "as §1, §2, §3, §4"}}, "note": "“And” between values parts separate entries of the source, which are not always exact repeats. Identical values can stand only once. Like-named read-outs stand apart in the source and are kept apart here.", "data": [{"molecule": "L65A: M1 mAChR mutant L65A (TM2); background and internal control in Example 3 (protein, UniProt P11229 1-460, looked up, variant L65A) Muscarinic acetylcholine …: MNTSAPPAVSPNITVLAPGKGPWQVAFIGITTGLLSLATVTGNLLVLISFKVNTELKTVNNYFLASLACADLIIGTFSMNLYTTYLLMGHWALGTLACDLWLALDYVASNASVMNLLLISFDRYFSVTRPLSYRAKRTPRRAALMIGLAWLVSFVLWAPAILFWQYLVGERTVLAGQCYIQFLSQPIITFGTAMAAFYLPVTVMCTLYWRIYRETENRARELAALQGSETPGKGGGSSSSSERSQPGAEGSPETPPGRCCRCCRAPRLLQAYSWKEEEEEDEGSMESLTSSEGEEPGSEVVIKMPMVDPEAQAPTKQPPRSSPNTVKRPTKKGRDRAGKGQKPRGKEQLAKRKTFSLVKEKKAARTLSAILLAFILTWTPYNIMVLVSTFCKDCVPETLWELGYWLCYVNSTINPMCYALCNKAFRDTFRLLLLCRWDKRRWRKIPKRPGSVHRTPSRQC", "values": [{"measurement": "Tm (0.1% DDM)", "setting": "M1 mAChR [1]", "result": "29.3 ± 0.4", "unit": "°C"}, {"measurement": "% 3H-NMS retained BOG", "setting": "M1 mAChR [2]; 0.82% BOG, listed as L65A 1", "result": "83% and 79%"}, {"measurement": "% 3H-NMS retained BOG", "setting": "M1 mAChR [2]; 0.82% BOG, listed as L65 A 2", "result": 86, "unit": "%"}, {"measurement": "% 3H-NMS retained BOG", "setting": "M1 mAChR [2]; 0.82% BOG, listed as L65A 2", "result": 79, "unit": "%"}, {"measurement": "% loss/wt", "setting": "M1 mAChR [2]; 0.82% BOG, % loss relative to wild-type control, listed as L65A 1", "result": "0.29 and 0.4"}, {"measurement": "mean % retained", "setting": "M1 mAChR [2]; 0.82% BOG, mean of the cultures, listed as L65A 1", "result": "84.5% and 79%"}, {"measurement": "Stability (βOG in-situ) % L65A control", "setting": "M1 mAChR [2]", "result": 100, "unit": "% L65A control"}, {"measurement": "enhanced stability relative to wild-type (retention of bound 3H-NMS)", "setting": "M1 mAChR [3]", "result": 2, "unit": "fold"}]}, {"molecule": "L65A/Y208A: M1 mAChR double mutant, Ala mutation on L65A background (protein, UniProt P11229 1-460, looked up, variant L65A Y208A) Muscarinic acetylcholine …: MNTSAPPAVSPNITVLAPGKGPWQVAFIGITTGLLSLATVTGNLLVLISFKVNTELKTVNNYFLASLACADLIIGTFSMNLYTTYLLMGHWALGTLACDLWLALDYVASNASVMNLLLISFDRYFSVTRPLSYRAKRTPRRAALMIGLAWLVSFVLWAPAILFWQYLVGERTVLAGQCYIQFLSQPIITFGTAMAAFYLPVTVMCTLAWRIYRETENRARELAALQGSETPGKGGGSSSSSERSQPGAEGSPETPPGRCCRCCRAPRLLQAYSWKEEEEEDEGSMESLTSSEGEEPGSEVVIKMPMVDPEAQAPTKQPPRSSPNTVKRPTKKGRDRAGKGQKPRGKEQLAKRKTFSLVKEKKAARTLSAILLAFILTWTPYNIMVLVSTFCKDCVPETLWELGYWLCYVNSTINPMCYALCNKAFRDTFRLLLLCRWDKRRWRKIPKRPGSVHRTPSRQC", "values": [{"measurement": "Tm (0.1% DDM)", "setting": "M1 mAChR [1]", "result": "29.6 ± 0.5", "unit": "°C"}, {"measurement": "Stability (βOG in-situ) % L65A control", "setting": "M1 mAChR [2]", "result": "100 ± 7", "unit": "% L65A control"}]}, {"molecule": "L65A/L402A: M1 mAChR double mutant, Ala mutation on L65A background (protein, UniProt P11229 1-460, looked up, variant L65A L402A) Muscarinic acetylcholine …: MNTSAPPAVSPNITVLAPGKGPWQVAFIGITTGLLSLATVTGNLLVLISFKVNTELKTVNNYFLASLACADLIIGTFSMNLYTTYLLMGHWALGTLACDLWLALDYVASNASVMNLLLISFDRYFSVTRPLSYRAKRTPRRAALMIGLAWLVSFVLWAPAILFWQYLVGERTVLAGQCYIQFLSQPIITFGTAMAAFYLPVTVMCTLYWRIYRETENRARELAALQGSETPGKGGGSSSSSERSQPGAEGSPETPPGRCCRCCRAPRLLQAYSWKEEEEEDEGSMESLTSSEGEEPGSEVVIKMPMVDPEAQAPTKQPPRSSPNTVKRPTKKGRDRAGKGQKPRGKEQLAKRKTFSLVKEKKAARTLSAILLAFILTWTPYNIMVLVSTFCKDCVPETLWEAGYWLCYVNSTINPMCYALCNKAFRDTFRLLLLCRWDKRRWRKIPKRPGSVHRTPSRQC", "values": [{"measurement": "Tm (0.1% DDM)", "setting": "M1 mAChR [1]", "result": "30.1 ± 0.5", "unit": "°C"}, {"measurement": "Stability (βOG in-situ) % L65A control", "setting": "M1 mAChR [2]", "result": "105 ± 10", "unit": "% L65A control"}]}]}
